Measured values published in patent US20140087995A1 (published 2014).
Numbered stars: 1 amine (or outer) side, 2 acyl side, 3 side chain; on linkers, the order of the positions; unused ones are H or OH. Bridge positions count the residues as written; N and C are the ends. Side chains are listed from the residue outwards. Ends that are not written are not given here. * marks the point of attachment. C20 diacid = O=C(O)CCCCCCCCCCCCCCCCCCC(=O)*; γGlu = O=C(O)[C@H](CCC(=O)[*:2])N[*:1]

T1: human amylin receptor (human calcitonin receptor co-expressed with RAMP-3; amylin 3(a) receptor) (human, UniProt P30988 25-474; O60896 24-148, limits assumed)
T1 construct: whole, on cells; Used as cell membranes prepared from Amylin 3(a)/CRE-luc BHK cells (Assay V), not as intact cells; also called hAmylin-R; hAmylinR
T1 sequence (looked up) 1: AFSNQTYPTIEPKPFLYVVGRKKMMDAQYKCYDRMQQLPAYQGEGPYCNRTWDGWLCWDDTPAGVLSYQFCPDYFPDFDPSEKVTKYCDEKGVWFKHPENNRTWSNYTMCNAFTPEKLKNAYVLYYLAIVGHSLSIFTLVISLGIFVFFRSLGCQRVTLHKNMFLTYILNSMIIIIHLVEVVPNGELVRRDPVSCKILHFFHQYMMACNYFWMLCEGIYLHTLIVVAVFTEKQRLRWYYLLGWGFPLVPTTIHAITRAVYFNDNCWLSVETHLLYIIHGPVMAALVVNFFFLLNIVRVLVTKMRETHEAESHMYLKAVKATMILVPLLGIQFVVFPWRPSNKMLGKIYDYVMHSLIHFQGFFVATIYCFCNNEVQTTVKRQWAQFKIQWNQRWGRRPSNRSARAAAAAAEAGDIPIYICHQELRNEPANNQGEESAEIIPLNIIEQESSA
T1 sequence (looked up) 2: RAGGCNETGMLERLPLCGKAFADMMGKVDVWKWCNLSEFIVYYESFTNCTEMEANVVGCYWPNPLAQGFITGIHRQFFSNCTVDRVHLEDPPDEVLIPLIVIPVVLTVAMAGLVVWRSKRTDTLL

T2: human calcitonin receptor (human, UniProt P30988 25-474)
T2 construct: whole, on cells; Used as cell membranes prepared from the transfected BHK cells (Assay VII), not as intact cells; also called hCTR; hCT
T2 sequence (looked up): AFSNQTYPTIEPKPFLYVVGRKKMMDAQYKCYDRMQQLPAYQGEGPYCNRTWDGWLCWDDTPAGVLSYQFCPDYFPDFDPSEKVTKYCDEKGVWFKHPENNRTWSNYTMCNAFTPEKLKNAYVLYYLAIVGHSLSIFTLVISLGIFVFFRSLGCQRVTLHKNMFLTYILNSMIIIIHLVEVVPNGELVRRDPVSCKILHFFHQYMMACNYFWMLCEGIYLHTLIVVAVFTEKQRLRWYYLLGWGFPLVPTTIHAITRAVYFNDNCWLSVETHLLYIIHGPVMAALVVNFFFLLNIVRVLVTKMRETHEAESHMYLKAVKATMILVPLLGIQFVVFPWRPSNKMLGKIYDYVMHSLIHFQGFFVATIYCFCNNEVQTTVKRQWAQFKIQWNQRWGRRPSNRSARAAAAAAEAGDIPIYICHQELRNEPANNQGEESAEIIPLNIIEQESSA

B1: N^ε1-[(4S)-4-carboxy-4-(19-carboxynonadecanoylamino)butanoyl]-[Arg14,Arg17,Pro21,Pro27,Pro31]-h-amylin (peptide)
peptide: K([γGlu-C20 diacid])CNTATCATQRLARFLRHSSPNFGAIPSSTPVGSNTY-NH2
modifications: disulfide 2-7; N-terminus assumed
SMILES: CC[C@H](C)[C@H](NC(=O)[C@H](C)NC(=O)CNC(=O)[C@H](Cc1ccccc1)NC(=O)[C@H](CC(N)=O)NC(=O)[C@@H]1CCCN1C(=O)[C@H](CO)NC(=O)[C@H](CO)NC(=O)[C@H](Cc1c[nH]cn1)NC(=O)[C@H](CCCNC(=N)N)NC(=O)[C@H](CC(C)C)NC(=O)[C@H](Cc1ccccc1)NC(=O)[C@H](CCCNC(=N)N)NC(=O)[C@H](C)NC(=O)[C@H](CC(C)C)NC(=O)[C@H](CCCNC(=N)N)NC(=O)[C@H](CCC(N)=O)NC(=O)[C@@H](NC(=O)[C@H](C)NC(=O)[C@@H]1CSSC[C@H](NC(=O)[C@@H](N)CCCCNC(=O)CC[C@H](NC(=O)CCCCCCCCCCCCCCCCCCC(=O)O)C(=O)O)C(=O)N[C@@H](CC(N)=O)C(=O)N[C@@H]([C@@H](C)O)C(=O)N[C@@H](C)C(=O)N[C@@H]([C@@H](C)O)C(=O)N1)[C@@H](C)O)C(=O)N1CCC[C@H]1C(=O)N[C@@H](CO)C(=O)N[C@@H](CO)C(=O)N[C@H](C(=O)N1CCC[C@H]1C(=O)N[C@H](C(=O)NCC(=O)N[C@@H](CO)C(=O)N[C@@H](CC(N)=O)C(=O)N[C@H](C(=O)N[C@@H](Cc1ccc(O)cc1)C(N)=O)[C@@H](C)O)C(C)C)[C@@H](C)O
notes: also called compound 63
B2: N^ε1-[(4S)-4-carboxy-4-(19-carboxynonadecanoylamino)butanoyl]-[Glu14,Arg17,Pro21,Pro27,Arg35]-h-amylin (peptide)
peptide: K([γGlu-C20 diacid])CNTATCATQRLAEFLRHSSPNFGAIPSSTNVGSRTY-NH2
modifications: disulfide 2-7; N-terminus assumed
SMILES: CC[C@H](C)[C@H](NC(=O)[C@H](C)NC(=O)CNC(=O)[C@H](Cc1ccccc1)NC(=O)[C@H](CC(N)=O)NC(=O)[C@@H]1CCCN1C(=O)[C@H](CO)NC(=O)[C@H](CO)NC(=O)[C@H](Cc1c[nH]cn1)NC(=O)[C@H](CCCNC(=N)N)NC(=O)[C@H](CC(C)C)NC(=O)[C@H](Cc1ccccc1)NC(=O)[C@H](CCC(=O)O)NC(=O)[C@H](C)NC(=O)[C@H](CC(C)C)NC(=O)[C@H](CCCNC(=N)N)NC(=O)[C@H](CCC(N)=O)NC(=O)[C@@H](NC(=O)[C@H](C)NC(=O)[C@@H]1CSSC[C@H](NC(=O)[C@@H](N)CCCCNC(=O)CC[C@H](NC(=O)CCCCCCCCCCCCCCCCCCC(=O)O)C(=O)O)C(=O)N[C@@H](CC(N)=O)C(=O)N[C@@H]([C@@H](C)O)C(=O)N[C@@H](C)C(=O)N[C@@H]([C@@H](C)O)C(=O)N1)[C@@H](C)O)C(=O)N1CCC[C@H]1C(=O)N[C@@H](CO)C(=O)N[C@@H](CO)C(=O)N[C@H](C(=O)N[C@@H](CC(N)=O)C(=O)N[C@H](C(=O)NCC(=O)N[C@@H](CO)C(=O)N[C@@H](CCCNC(=N)N)C(=O)N[C@H](C(=O)N[C@@H](Cc1ccc(O)cc1)C(N)=O)[C@@H](C)O)C(C)C)[C@@H](C)O
notes: also called compound 51
B3: N^ε1-[(4S)-4-carboxy-4-(19-carboxynonadecanoylamino)butanoyl]-[Arg14,Arg17,Pro21,Pro27,Pro34]-h-amylin (peptide)
peptide: K([γGlu-C20 diacid])CNTATCATQRLARFLRHSSPNFGAIPSSTNVGPNTY-NH2
modifications: disulfide 2-7; N-terminus assumed
SMILES: CC[C@H](C)[C@H](NC(=O)[C@H](C)NC(=O)CNC(=O)[C@H](Cc1ccccc1)NC(=O)[C@H](CC(N)=O)NC(=O)[C@@H]1CCCN1C(=O)[C@H](CO)NC(=O)[C@H](CO)NC(=O)[C@H](Cc1c[nH]cn1)NC(=O)[C@H](CCCNC(=N)N)NC(=O)[C@H](CC(C)C)NC(=O)[C@H](Cc1ccccc1)NC(=O)[C@H](CCCNC(=N)N)NC(=O)[C@H](C)NC(=O)[C@H](CC(C)C)NC(=O)[C@H](CCCNC(=N)N)NC(=O)[C@H](CCC(N)=O)NC(=O)[C@@H](NC(=O)[C@H](C)NC(=O)[C@@H]1CSSC[C@H](NC(=O)[C@@H](N)CCCCNC(=O)CC[C@H](NC(=O)CCCCCCCCCCCCCCCCCCC(=O)O)C(=O)O)C(=O)N[C@@H](CC(N)=O)C(=O)N[C@@H]([C@@H](C)O)C(=O)N[C@@H](C)C(=O)N[C@@H]([C@@H](C)O)C(=O)N1)[C@@H](C)O)C(=O)N1CCC[C@H]1C(=O)N[C@@H](CO)C(=O)N[C@@H](CO)C(=O)N[C@H](C(=O)N[C@@H](CC(N)=O)C(=O)N[C@H](C(=O)NCC(=O)N1CCC[C@H]1C(=O)N[C@@H](CC(N)=O)C(=O)N[C@H](C(=O)N[C@@H](Cc1ccc(O)cc1)C(N)=O)[C@@H](C)O)C(C)C)[C@@H](C)O
notes: also called compound 65
B4: N^ε1-[(4S)-4-carboxy-4-(19-carboxynonadecanoylamino)butanoyl]-[His14,Arg17,Pro21,Pro27,His35]-h-amylin (peptide)
peptide: K([γGlu-C20 diacid])CNTATCATQRLAHFLRHSSPNFGAIPSSTNVGSHTY-NH2
modifications: disulfide 2-7; N-terminus assumed
SMILES: CC[C@H](C)[C@H](NC(=O)[C@H](C)NC(=O)CNC(=O)[C@H](Cc1ccccc1)NC(=O)[C@H](CC(N)=O)NC(=O)[C@@H]1CCCN1C(=O)[C@H](CO)NC(=O)[C@H](CO)NC(=O)[C@H](Cc1c[nH]cn1)NC(=O)[C@H](CCCNC(=N)N)NC(=O)[C@H](CC(C)C)NC(=O)[C@H](Cc1ccccc1)NC(=O)[C@H](Cc1c[nH]cn1)NC(=O)[C@H](C)NC(=O)[C@H](CC(C)C)NC(=O)[C@H](CCCNC(=N)N)NC(=O)[C@H](CCC(N)=O)NC(=O)[C@@H](NC(=O)[C@H](C)NC(=O)[C@@H]1CSSC[C@H](NC(=O)[C@@H](N)CCCCNC(=O)CC[C@H](NC(=O)CCCCCCCCCCCCCCCCCCC(=O)O)C(=O)O)C(=O)N[C@@H](CC(N)=O)C(=O)N[C@@H]([C@@H](C)O)C(=O)N[C@@H](C)C(=O)N[C@@H]([C@@H](C)O)C(=O)N1)[C@@H](C)O)C(=O)N1CCC[C@H]1C(=O)N[C@@H](CO)C(=O)N[C@@H](CO)C(=O)N[C@H](C(=O)N[C@@H](CC(N)=O)C(=O)N[C@H](C(=O)NCC(=O)N[C@@H](CO)C(=O)N[C@@H](Cc1c[nH]cn1)C(=O)N[C@H](C(=O)N[C@@H](Cc1ccc(O)cc1)C(N)=O)[C@@H](C)O)C(C)C)[C@@H](C)O
notes: also called compound 66
B5: N^ε1-[(4S)-4-carboxy-4-(19-carboxynonadecanoylamino)butanoyl]-[Arg17,Pro21,Pro27,His35]-h-amylin (peptide)
peptide: K([γGlu-C20 diacid])CNTATCATQRLANFLRHSSPNFGAIPSSTNVGSHTY-NH2
modifications: disulfide 2-7; N-terminus assumed
SMILES: CC[C@H](C)[C@H](NC(=O)[C@H](C)NC(=O)CNC(=O)[C@H](Cc1ccccc1)NC(=O)[C@H](CC(N)=O)NC(=O)[C@@H]1CCCN1C(=O)[C@H](CO)NC(=O)[C@H](CO)NC(=O)[C@H](Cc1c[nH]cn1)NC(=O)[C@H](CCCNC(=N)N)NC(=O)[C@H](CC(C)C)NC(=O)[C@H](Cc1ccccc1)NC(=O)[C@H](CC(N)=O)NC(=O)[C@H](C)NC(=O)[C@H](CC(C)C)NC(=O)[C@H](CCCNC(=N)N)NC(=O)[C@H](CCC(N)=O)NC(=O)[C@@H](NC(=O)[C@H](C)NC(=O)[C@@H]1CSSC[C@H](NC(=O)[C@@H](N)CCCCNC(=O)CC[C@H](NC(=O)CCCCCCCCCCCCCCCCCCC(=O)O)C(=O)O)C(=O)N[C@@H](CC(N)=O)C(=O)N[C@@H]([C@@H](C)O)C(=O)N[C@@H](C)C(=O)N[C@@H]([C@@H](C)O)C(=O)N1)[C@@H](C)O)C(=O)N1CCC[C@H]1C(=O)N[C@@H](CO)C(=O)N[C@@H](CO)C(=O)N[C@H](C(=O)N[C@@H](CC(N)=O)C(=O)N[C@H](C(=O)NCC(=O)N[C@@H](CO)C(=O)N[C@@H](Cc1c[nH]cn1)C(=O)N[C@H](C(=O)N[C@@H](Cc1ccc(O)cc1)C(N)=O)[C@@H](C)O)C(C)C)[C@@H](C)O
notes: also called compound 60

Assays:
[1] = molecular target: T1, human amylin receptor (human calcitonin …); assay: ratio of hCTR binding IC50 to hAmylin-R binding IC50 (reference: human calcitonin receptor)
Description: The resulting pellet was resuspended, homogenized and centrifuged (20.000 rpm, 15 min) in a buffer containing 20 mM Na-HEPES and 0.1 mM EDTA (pH 7.4, buffer 2). The resulting pellet was resuspended in buffer 2 and protein concentration was measured (BCA protein Assay, Pierce). The homogenate was kept cold during the whole procedure. The membranes were kept at −80° C. until use. The assay was performed in a 384 well Optiplate (PerkinElmer) in a total volume of 40 ul. Membranes were mixed with SPA beads. Final concentration of membranes 35 ng/μL final and SPA beads was 0.05 mg/well. Test-compounds were dissolved in DMSO and further diluted in assay buffer (50 mM Hepes, pH 7.4, 1 mM CaCl2, 5 mM MgCl₂, 0.1% OA and 0.02% Tween20). […] The final mixture was incubated with shaking at 400 rpm for 120 min at 25° C. prior to centrifugation (1500 rpm, 10 min). Samples were analyzed on TopCounter™ (Packard). The IC₅₀ was calculated using (one site binding competition analysis) GraphPad Prism5 as a measure of receptor affinity.
Membranes were prepared in the following way; the cells were rinsed with PBS and incubated with Versene for approximately 5 min before harvesting. The cells were flushed with PBS and the cell-suspension was centrifuged for 5 min at 1000 rpm. Cells were homogenized (Ultrathurrax) in a buffer containing 20 mM Na-HEPES and 10 mM EDTA (pH 7.4) and centrifuged at 20.000 rpm for 15 min. The resulting pellet was resuspended, homogenized and centrifuged (20.000 rpm, 15 min) in a buffer containing 20 mM Na-HEPES and 0.1 mM EDTA (pH 7.4, buffer 2). The resulting pellet was resuspended in buffer 2 and protein concentration was measured (BCA protein Assay, Pierce). The homogenate was kept cold during the whole procedure. The membranes were kept at −80° C. until use. Assay was performed in a 384 well Optiplate (PerkinElmer) in a total volume of 40 ul. Membranes were mixed with SPA beads.

[2] = molecular target: T2, human calcitonin receptor; assay: SPA competition against 125I-calcitonin, membranes with human calcitonin receptor (Assay VII)
Procedure, shortened: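 BHK hCTR membranes 35 ng/μL + SPA beads 0.05 mg/well; buffer 50 mM Hepes pH 7.4, 1 mM CaCl2, 5 mM MgCl₂, 0.1% OA, 0.02% Tween20. 120 min, 25° C., shaking. Scintillation count; IC50 by one-site binding competition.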

Binder	Ratio hCT/hAmylin binding [1]	IC50 [2]
B1	157	130 nM
B2	37.5	31.1 nM
B3	82.4	53.5 nM
B4	45.5	18 nM
B5	45.2	31.4 nM
